Measurements published in CN110606891A (L&L BIOPHARMA CO LTD, dated 2019).
Changes are numbered by the printed parent chain. In names and notes the source's numbering stands. One block for each binder: values may come before it.

What was measured:
[1] = molecular target: T1, 鼠CLDN18.2 (mCLDN18.2), claudin-18 isoform A2.1 [Mus musculus], NP_001181850.1 (mouse, UniProt P56857 10-264); experiment: cell ELISA on mCLDN18.2+ cells, against Ref
T1 construct: also called 鼠CLDN18.2+细胞; mCLDN18.2+ cell
T1 chain: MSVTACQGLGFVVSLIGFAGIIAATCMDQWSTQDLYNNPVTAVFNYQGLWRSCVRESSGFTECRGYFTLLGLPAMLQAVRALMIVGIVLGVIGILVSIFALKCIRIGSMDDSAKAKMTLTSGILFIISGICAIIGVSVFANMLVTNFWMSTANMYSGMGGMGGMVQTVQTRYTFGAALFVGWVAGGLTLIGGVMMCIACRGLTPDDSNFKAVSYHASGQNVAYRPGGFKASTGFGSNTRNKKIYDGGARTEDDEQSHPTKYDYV

[2] = molecular target: T1, 鼠CLDN18.2 (mCLDN18.2), claudin-18 …; experiment: cell ELISA on mCLDN18.2+ cells (Table 23)
[3] = molecular target: T1, 鼠CLDN18.2 (mCLDN18.2), claudin-18 …; experiment: cell ELISA on mCLDN18.2+ cells
[4] = molecular target: T2, 人CLDN18.2 (hCLDN18.2), claudin-18 isoform 2 [Homo sapiens], NP_001002026.1 (human); experiment: cell-based or functional assay
[5] = molecular target: T3, 人CLDN18.1 (hCLDN18.1), claudin-18 isoform 1 precursor [Homo sapiens], NP_057453.1 (human, UniProt P56856 1-261); experiment: cell ELISA, hybridoma supernatant on hCLDN18.1+ cells
T3 construct: No signal peptide limits stated for this entry; also called 人CLDN18.1+ 细胞; hCLDN18.1+ cell
T3 sequence: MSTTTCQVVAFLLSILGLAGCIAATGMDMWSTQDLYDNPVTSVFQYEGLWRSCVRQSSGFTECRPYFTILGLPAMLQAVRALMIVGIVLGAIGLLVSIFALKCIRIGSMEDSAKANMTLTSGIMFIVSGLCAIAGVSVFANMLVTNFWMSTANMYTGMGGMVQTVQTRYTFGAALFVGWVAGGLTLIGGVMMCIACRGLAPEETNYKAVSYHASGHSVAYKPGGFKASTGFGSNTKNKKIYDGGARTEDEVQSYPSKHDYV

[6] = molecular target: T2, 人CLDN18.2 (hCLDN18.2), claudin-18 …; experiment: cell ELISA, hybridoma supernatant on hCLDN18.2+ cells
[7] = molecular target: T2, 人CLDN18.2 (hCLDN18.2), claudin-18 …; experiment: cell ELISA on hCLDN18.2+ cells (Table 16a)
[8] = molecular target: T4, 鼠CLDN18.1 (mCLDN18.1), claudin-18 isoform A1.1 precursor, NP_062789.1 (mouse, UniProt P56857 1-264); experiment: cell ELISA on mCLDN18.1+ cells
T4 construct: also called 鼠CLDN18.1+ 细胞; mCLDN18.1+ cell
T4 sequence: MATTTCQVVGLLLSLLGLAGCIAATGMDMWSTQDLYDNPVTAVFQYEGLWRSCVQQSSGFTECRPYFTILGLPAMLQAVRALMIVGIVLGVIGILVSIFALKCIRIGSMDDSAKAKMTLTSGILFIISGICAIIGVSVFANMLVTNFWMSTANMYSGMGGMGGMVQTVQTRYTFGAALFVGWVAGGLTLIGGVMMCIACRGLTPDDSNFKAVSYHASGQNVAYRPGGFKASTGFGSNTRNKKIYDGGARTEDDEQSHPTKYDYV

[9] = molecular target: T3, 人CLDN18.1 (hCLDN18.1), claudin-18 …; experiment: cell ELISA on hCLDN18.1+ cells

B1: anti-hCLDN18.2抗体mab5b (重组表达) (antibody, human IgG1, kappa, V domains shown)
VH: QVQLQQSGAELIGPGTSVKVSCKASGYAFSNYLIEWVKQRPEQGLEWIGLINPGSGGTNYNEKFKGKATLTADKSSSTAYMQLSSLTSDDSAVYFCARVYYGNSFAYWGQGTLVTVSA
VL: DIVMTQSPSSLTVTAGEKVTMSCKSSQSLLNSGNQKNYLTWYQQKPGQPPKLLIYWASTRESGVPDRFTGSGSGTHFTLTISSVQAEDLAVYYCQNDYFYPFTFGSGTKLEKKR
notes: also called 鼠源抗体mab5b
结合活性 (EC50) 比Ref好的倍数 [1]: > 4 倍
EC50 [2]: 0.375 nM
Emax [2]: 2.17
EC50 [3]: 0.182 nM

B2: Ab66 (L21, H61, hIgG1 Fc S239D/A330L/I332E) (antibody)
heavy: QVQLVQSGAEVKKPGSSVKVSCKASGYAFSNYLIEWVRQAPGQGLEWMGLINPGSGGTNYNEKFKGKVTITADKSTSTAYMELSSLRSEDTAVYYCARVYYGNTFAYWGQGTLVTVSSASTKGPSVFPLAPSSKSTSGGTAALGCLVKDYFPEPVTVSWNSGALTSGVHTFPAVLQSSGLYSLSSVVTVPSSSLGTQTYICNVNHKPSNTKVDKKVEPKSCDKTHTCPPCPAPELLGGPDVFLFPPKPKDTLMISRTPEVTCVVVDVSHEDPEVKFNWYVDGVEVHNAKTKPREEQYNSTYRVVSVLTVLHQDWLNGKEYKCKVSNKALPLPEEKTISKAKGQPREPQVYTLPPSRDELTKNQVSLTCLVKGFYPSDIAVEWESNGQPENNYKTTPPVLDSDGSFFLYSKLTVDKSRWQQGNVFSCSVMHEALHNHYTQKSLSLSPGK
light: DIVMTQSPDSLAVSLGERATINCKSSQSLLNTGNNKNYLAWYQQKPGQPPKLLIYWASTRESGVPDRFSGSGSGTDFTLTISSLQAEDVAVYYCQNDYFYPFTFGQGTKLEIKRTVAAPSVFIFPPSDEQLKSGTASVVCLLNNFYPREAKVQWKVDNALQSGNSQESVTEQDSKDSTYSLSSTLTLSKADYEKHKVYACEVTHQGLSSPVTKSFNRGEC
CDC EC50 (人血清补体对hCLDN18.2+细胞, LDH) [4]: 0.927 µg/mL

B3: Ab60 (L12, H51, hIgG1 Fc S239D/A330L/I332E) (antibody)
heavy: B2 heavy with R38K, M48I, V68A, T104S
light: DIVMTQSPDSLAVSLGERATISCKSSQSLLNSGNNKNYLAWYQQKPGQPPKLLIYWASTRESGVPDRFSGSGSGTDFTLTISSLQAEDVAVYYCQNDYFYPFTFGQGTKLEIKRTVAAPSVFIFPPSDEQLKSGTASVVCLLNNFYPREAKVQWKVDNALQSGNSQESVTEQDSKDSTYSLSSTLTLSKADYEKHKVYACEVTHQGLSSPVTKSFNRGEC
ADCC EC50 (PBMC对hCLDN18.2+细胞, LDH) [4]: 0.431 µg/mL
CDC EC50 (人血清补体对hCLDN18.2+细胞, LDH) [4]: 0.973 µg/mL

B4: mab2 (初始杂交瘤克隆 F6B1, 上清) (antibody, V domains shown)
VH: EVQLLESGGGLVQPGGSLRLSCAASGFTFSSYGMSWVRQAPGKGLEWVAGIGSSGSDTWYADSVKGRFTISRDNSKNTLYLQMNSLRAEDTAVYYCAKDATNGYCWYTGRGSYSCGAHHIDAWGQGTLVTVSS
VL: SYELTQPPSVSVSPGQTARITCSGGSGSYGYYGWYQQKPGQAPVTVIYGTNKRPSGIPERFSGSSSGTTVTLTISGVQAEDEADYYCGGYDSSAGIFGGGTKLTVL
结合活性 (ELISA) [5]: 0.123
结合活性 (ELISA) [6]: 0.176

B5: mab1 (初始杂交瘤克隆 F2A4, 上清) (antibody, V domains shown)
VH: EVQLLESGGGLVQPGGSLRLSCAASGFTFSSYGMGWVRQAPGKGLEWVAAITRDSSTNYGAAVKGRATISRDNSKNTLYLQMNSLRAEDTAVYYCAKDASNGYCWYTGRGSYSCGAHHIDAWGQGTLVTVSS
VL: SYELTQPPSVSVSPGQTARITCSGGYNGHYGWYQQKPGQAPVTVIYSNNQRPSGIPERFSGSSSGTTVTLTISGVQAEDEADYYCGGYDSSAGIFGGGTKLTVL
结合活性 (ELISA) [5]: 1.19
结合活性 (ELISA) [6]: 1.62

B7: Ab22 (轻链CDR1 NS-> TS, 重链 CDR3 NS-> NT) (antibody, V domains shown)
VH: EVMLVESGGGLVKPGGSLKLSCAASGFTFSSYTMSWVRQTPEKRLEWVATIIGGYGNTYYADSVKGRFTISRDSAKNTLYLQMISLRSEDTALYYCTRLGQTQRNAMDYWGQGTSVTVSS
VL: DILMTQSPSSLSVSAGEKVTMSCKSSQSLLNSGNQKNYLAWYQQKPGQPPKLLIYGASTRESGVPDTFTGSGSGTDFTLTISSVQAEDLAVYYCQNDYYYPFTFGAGTKLEL
EC50 [7]: 1.37 nM

B9: Ab51抗体 (antibody, human IgG1, kappa, V domains shown)
VH: QVQLVQSGAEVKKPGSSVKVSCKASGYAFSNYLIEWVRQAPGQGLEWMGLINPGSGGTNYNEKFKGRVTITADESTSTAYMELSSLRSEDTAVYYCARVYYGNTFAYWGQGTLVTVSS
VL: DIVMTQSPDSLAVSLGERATINCKSSQSLLNTGNNKNYLAWYQQKPGQPPKLLIYWASTRESGVPDRFSGSGSGTDFTLTISSLQAEDVAVYYCQNDYFYPFTFGQGTKLEIKR
notes: hIgG1 (DEL) / kappa; also called L21/H64 DEL
CDC EC50 (人血清补体对hCLDN18.2+细胞, LDH) [4]: 2.12 µg/mL
EC50 [2]: 0.474 nM
Emax [2]: 1.91
binding result [8]: no binding

Other lines, results leading:

结合活性 (ELISA) [5]: 0.448
结合活性 (ELISA) [6]: 0.671
B6: mab3 (初始杂交瘤克隆 C6F9, 上清) (antibody, V domains shown)
VH: EVQLLESGGGLVQPGGSLRLSCAASGFTFRSYAMMWVRQAPGKGLEWVGEISSTGGSTYYGSAVKGRATISRDNSKNTLYLQMNSLRAEDTAVYYCAKSTYGATWKSADSIDAWGQGTLVTVSS
VL: B5 VL with T43L

CDC EC50 (人血清补体对hCLDN18.2+细胞, LDH) [4]: 1.75 µg/mL
EC50 [2]: 0.518 nM
Emax [2]: 2.18
binding result [8]: no binding
B8: Ab36抗体 (antibody, human IgG1, kappa, V domains shown)
VH: B9 VH with R38K, M48I, R67K, V68A, E74K
VL: B9 VL with N22S
notes: Ab6 with NS->NT in light CDR1 and heavy CDR3; hIgG1 / kappa

binding result [9]: no binding
EC50 [2]: 0.371 nM
Emax [2]: 2.27
binding result [8]: no binding
B10: 人源化Ab10抗体 (antibody, human IgG1, kappa, V domains shown)
VH: B9 VH with R38K, M48I, R67K, V68A, E74K, T104S
VL: B9 VL with N22S, T32S, N35Q, A40T
notes: Humanized, hIgG1 (356-358 DEL) / kappa; also called L14/H51
